Data published in the supplement of paper PMC7125110.
± gives the standard error. Variants at the floor of the assay were thinned out.

B1: glmS ribozyme (parent)
chain: AUAAAAGCGCCAGAACUACAGAAAUGUAGUUGACGAGGAGGAGGUUUAUCGAAUUUUCGGCGGAUGCCUCCAAA

Columns and labels:
Conditions in all cases: with glucosamine-6-phosphate
glucosamine-6-phosphate [1] = variants of: B1; test: self-cleavage kobs at 40 uM GlcN6P; higher = faster cleavage; RNA array
Summary of the method: (§1)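 A hybridised Cy3 probe tracked barcoded ribozyme variants, transcribed in situ by E. coli RNA polymerase on sequenced MiSeq chips, at 37 °C. The variants received 40 μM to 10 mM glucosamine-6-phosphate in HEPES/KCl/Mg(OAc)2 buffer. kobs came from decay fits and kcat and KM from weighted Michaelis–Menten fits.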

glucosamine-6-phosphate [2] = variants of: B1; test: self-cleavage kobs at 160 uM GlcN6P; higher = faster cleavage; RNA array
Summary of the method: as §1

glucosamine-6-phosphate [3] = variants of: B1; test: self-cleavage kobs at 640 uM GlcN6P; higher = faster cleavage; RNA array
Summary of the method: as §1

glucosamine-6-phosphate [4] = variants of: B1; test: self-cleavage kobs at 2500 uM GlcN6P; higher = faster cleavage; RNA array
Summary of the method: as §1

glucosamine-6-phosphate [5] = variants of: B1; test: self-cleavage kobs at 10000 uM GlcN6P; higher = faster cleavage; RNA array
Summary of the method: as §1

Row | Variant | self-cleavage kobs at 40 uM GlcN6P (glucosamine-6-phosphate [1]) [s⁻¹] | self-cleavage kobs at 160 uM GlcN6P (glucosamine-6-phosphate [2]) [s⁻¹] | self-cleavage kobs at 640 uM GlcN6P (glucosamine-6-phosphate [3]) [s⁻¹] | self-cleavage kobs at 2500 uM GlcN6P (glucosamine-6-phosphate [4]) [s⁻¹] | self-cleavage kobs at 10000 uM GlcN6P (glucosamine-6-phosphate [5]) [s⁻¹]
1 | U46C C50A C58U G62C | < 1e-05 |  |  |  | 
2 | G13C G35U G41U G43A G60C | < 1e-05 |  |  |  | 
3 | U45C C61G | < 1e-05 | < 1e-05 | < 1e-05 | < 1e-05 | < 1e-05
4 | U30G A64U | < 1e-05 | < 1e-05 |  |  | 
5 | A14G A15U U31C | 0.000793 ± 0.00021 |  |  |  | 0.0212 ± 0.0057
6 | G9A A39U G44A U55C | < 1e-05 |  |  |  | < 1e-05
7 | C10A A39U U69C | < 1e-05 |  |  |  | < 1e-05
8 | A6G A15G G66U C70U | < 1e-05 |  |  |  | 
9 | G7C C11A | < 1e-05 | < 1e-05 | < 1e-05 |  | < 1e-05
10 | C11A C50G G62U | 0.000115 ± 2.8e-05 |  |  |  | 0.000116 ± 2.6e-05
11 | C8G A39U C58U | < 1e-05 | < 1e-05 | < 1e-05 |  | < 1e-05
12 | A48U C61A | < 1e-05 | < 1e-05 |  |  | < 1e-05
13 | G7C A39U | < 1e-05 |  | < 1e-05 |  | < 1e-05
14 | G7C A39C | < 1e-05 | < 1e-05 |  |  | < 1e-05
15 | A6U G7C | < 1e-05 |  | < 1e-05 | < 1e-05 | < 1e-05
16 | C34U G38C C67U | < 1e-05 |  |  |  | < 1e-05
17 | C8A A48U | < 1e-05 |  | < 1e-05 | < 1e-05 | 
18 | G38A U56C | < 1e-05 | < 1e-05 | < 1e-05 |  | < 1e-05
19 | C8U A14U G44U | < 1e-05 |  |  |  | 
20 | A15C G35A G51A C68A | < 1e-05 |  | < 1e-05 |  | < 1e-05
21 | U45A G66A | 0.000969 ± 0.00013 | 0.00224 ± 0.00044 | 0.00848 ± 0.0021 | 0.00884 ± 0.002 | 0.0359 ± 0.011
22 | A14G C16U G37A C67G C70G | < 1e-05 |  |  | < 1e-05 | 
23 | G43C C50A U65C C68U | < 1e-05 |  |  |  | < 1e-05
24 | G35U U47A U57C | < 1e-05 |  |  |  | 
25 | U49G C58G | < 1e-05 |  |  |  | 

Row | Variant | self-cleavage kobs at 40 uM GlcN6P (glucosamine-6-phosphate [1]) [s⁻¹] | self-cleavage kobs at 160 uM GlcN6P (glucosamine-6-phosphate [2]) [s⁻¹] | self-cleavage kobs at 640 uM GlcN6P (glucosamine-6-phosphate [3]) [s⁻¹] | self-cleavage kobs at 2500 uM GlcN6P (glucosamine-6-phosphate [4]) [s⁻¹] | self-cleavage kobs at 10000 uM GlcN6P (glucosamine-6-phosphate [5]) [s⁻¹]
26 | A6C G62A G66C U69A | < 1e-05 |  |  |  | < 1e-05
27 | C11U A42C | < 1e-05 | < 1e-05 | < 1e-05 | < 1e-05 | < 1e-05
28 | G38C G43C | < 1e-05 |  |  |  | 
29 | C10A A52U U56G | < 1e-05 | < 1e-05 | < 1e-05 | < 1e-05 | < 1e-05
30 | G44A U56C C61U | < 1e-05 |  | < 1e-05 | < 1e-05 | < 1e-05
31 | A6G U31G A42C A48G C67G | < 1e-05 |  |  |  | 
32 | G40A C68A | < 1e-05 | < 1e-05 | < 1e-05 | < 1e-05 | < 1e-05
33 | C11U A42C C67G C71A | < 1e-05 |  |  |  | < 1e-05
34 | C8G G13U G21A U30A | < 1e-05 |  |  |  | < 1e-05
35 | A15G A42G A53G | 0.00166 ± 0.00034 |  | 0.00796 ± 0.003 |  | 
36 | G7A A33U A52U C70U | < 1e-05 |  |  | < 1e-05 | 
37 | A15U G29C G43C | < 1e-05 |  |  |  | 
38 | C11A G38A G44C | < 1e-05 |  |  |  | < 1e-05
39 | A36U A39G G51A A53U | < 1e-05 |  | < 1e-05 | < 1e-05 | < 1e-05
40 | A6U G40U U56A | < 1e-05 |  | < 1e-05 |  | 
41 | G9U A15G | < 1e-05 |  | < 1e-05 | < 1e-05 | 
42 | C16G U31C G37C A53G | < 1e-05 |  |  |  | 
43 | C11A G44U U54C | < 1e-05 |  |  | < 1e-05 | 
44 | G37U C58A G60C C70A | < 1e-05 |  |  |  | < 1e-05
45 | A39U G40C G43U | < 1e-05 |  |  |  | < 1e-05
46 | A12C A14G A15C | 0.000144 ± 2.4e-05 |  | 0.00124 ± 0.0003 | 0.00354 ± 0.00082 | 
47 | A36G C50G C68U | 0.000269 ± 0.0001 | 0.000434 ± 0.00013 | 0.000436 ± 0.00017 | 9.73e-05 ± 3.6e-05 | 0.000205 ± 5.4e-05
48 | G32U A36U G41A | < 1e-05 |  | < 1e-05 |  | 
49 | G35A A52G | < 1e-05 |  |  | < 1e-05 | < 1e-05
